The values that follow come from patent US20220169740A1 (KINDRED BIOSCIENCES, published 2022).

Assay [1] concerns the target T1, human NGF (Sino Biological, Inc.; Catalog No. 11050-HNAC) (human, UniProt P01138 122-241, limits assumed, biotinylated in the Octet assay of Example 3 (sites not given); not biotinylated in the TF1 assay).
T1 construct: also called nerve growth factor; biotinylated NGF
Kind of assay: BLI (Octet); biotinylated human NGF on streptavidin tips, TrkA-Fc 25 ug/mL; 1:1 fit. Here is the method: Binding activity of canine, feline, and equine TrkA ECD v2 and v3 fusion polypeptides prepared in Example 2 (SEQ ID NOs: 16, 17, 19, 20, 22, and 23) to commercially-available human NGF was considered. The binding analysis was performed using a biosensor Octet as follows. Briefly, human NGF (Sino Biological, Inc.; Catalog No. 11050-HNAC) was biotinylated. The free unreacted biotin was removed from biotinylated NGF by extensive dialysis. Biotinylated NGF was captured on streptavidin sensor tips. The association of NGF with TrkA-Fc (25 ug/mL) was monitored for 600 seconds. Dissociation was monitored for 600 seconds. A buffer only blank curve was subtracted to correct for any drift. The data were fit to a 1:1 binding model using ForteBio™ data analysis software to determine the kₒₙ, koff, and the Kd. The buffer for dilutions and all binding steps was: 20 mM phosphate, 150 mM NaCl, pH 7.2.
FIG. 1 and FIG. 2 are sensorgrams showing that canine, feline, and equine TrkA ECD v2 and v3 fusion polypeptides all bind NGF. […] Irrelevant canine and feline IgG-Fc fusion proteins were used as a negative control.

In assay [2] the target is T1, human NGF (Sino Biological, Inc.; …). Kind of assay: cell-based or functional assay.

T1 sequence (P01138 122-241 limits assumed): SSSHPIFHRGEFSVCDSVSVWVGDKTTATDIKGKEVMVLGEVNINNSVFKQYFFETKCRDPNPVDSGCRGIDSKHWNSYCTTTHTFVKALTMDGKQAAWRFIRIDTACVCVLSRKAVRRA

B1: Equine TrkA ECD v2-variant equine IgG2 Fc (Protein A+, C1q-, CD16-) (Fc fusion)
chain: VSFPASVHLQTAVEQHHWCIPFSVDGQPAPTLRWLFNGSVLNETSFIFTEFLESAANETMRHGCLRLNQPTHVNNGNYTLLATNPYGQDSASVMVAFMDNPFEFNPEDPIPVSFSPVDTNSTSRDPPCVLSAEGVIPIPSVPKPQCPPYTHSKFLGGPSVFIFPPNPKDTLMISRTPVVTCVVVNLSDQYPDVQFSWYVDNTEVHSAITKQREAQFNSTYRVVSVLPIQHQDWLSGKEFKCSVTNVGVPQPISRAISRGKGPSRVPQVYVLPPHPDELAKSKVSVTCLVKDFYPPDISVEWQSNRWPELEGKYSTTPAQLDGDGSYFLYSKLSLETSRWQQVESFTCAVMHEALHNHYTKTDISESLGK
notes: CHO; also called equine TrkA ECD v2 fusion polypeptide; equine TrkA v2
Turning to B1, the Kd in assay [1] was ~1 nM. The “IC50, TF1 cell proliferation assay (CellTiter-Glo luminescence; NGF at 10 ng/ml)” value in assay [2] amounted to 5.4 nM.
